Results on 2 substances are retold here after paper PMC9156758.

One may read the stoichiometry N as a count of units in the complex or per binding partner.

Assay [1] concerns the target A2ML1-CC (TEV-P-cleaved A2ML1t with covalently conjugated TEV-P) (human | tobacco etch virus) (UniProt A8K2U0). In words: cryo-EM structure; TEV-P-cleaved A2ML1t samples on grids; monomers and dimers separated by 2D classification, multi-class ab initio reconstruction and heterogeneous refinement.
For assay [2], the target named is TEV-P-cleaved A2ML1t prepared in the presence of BAPN, without conjugated TEV-P (human) (UniProt A8K2U0). The assay is described as above.

Sequence of TEV-P-cleaved A2ML1t prepared in the presence of BAPN, without conjugated TEV-P (A8K2U0 19-1454): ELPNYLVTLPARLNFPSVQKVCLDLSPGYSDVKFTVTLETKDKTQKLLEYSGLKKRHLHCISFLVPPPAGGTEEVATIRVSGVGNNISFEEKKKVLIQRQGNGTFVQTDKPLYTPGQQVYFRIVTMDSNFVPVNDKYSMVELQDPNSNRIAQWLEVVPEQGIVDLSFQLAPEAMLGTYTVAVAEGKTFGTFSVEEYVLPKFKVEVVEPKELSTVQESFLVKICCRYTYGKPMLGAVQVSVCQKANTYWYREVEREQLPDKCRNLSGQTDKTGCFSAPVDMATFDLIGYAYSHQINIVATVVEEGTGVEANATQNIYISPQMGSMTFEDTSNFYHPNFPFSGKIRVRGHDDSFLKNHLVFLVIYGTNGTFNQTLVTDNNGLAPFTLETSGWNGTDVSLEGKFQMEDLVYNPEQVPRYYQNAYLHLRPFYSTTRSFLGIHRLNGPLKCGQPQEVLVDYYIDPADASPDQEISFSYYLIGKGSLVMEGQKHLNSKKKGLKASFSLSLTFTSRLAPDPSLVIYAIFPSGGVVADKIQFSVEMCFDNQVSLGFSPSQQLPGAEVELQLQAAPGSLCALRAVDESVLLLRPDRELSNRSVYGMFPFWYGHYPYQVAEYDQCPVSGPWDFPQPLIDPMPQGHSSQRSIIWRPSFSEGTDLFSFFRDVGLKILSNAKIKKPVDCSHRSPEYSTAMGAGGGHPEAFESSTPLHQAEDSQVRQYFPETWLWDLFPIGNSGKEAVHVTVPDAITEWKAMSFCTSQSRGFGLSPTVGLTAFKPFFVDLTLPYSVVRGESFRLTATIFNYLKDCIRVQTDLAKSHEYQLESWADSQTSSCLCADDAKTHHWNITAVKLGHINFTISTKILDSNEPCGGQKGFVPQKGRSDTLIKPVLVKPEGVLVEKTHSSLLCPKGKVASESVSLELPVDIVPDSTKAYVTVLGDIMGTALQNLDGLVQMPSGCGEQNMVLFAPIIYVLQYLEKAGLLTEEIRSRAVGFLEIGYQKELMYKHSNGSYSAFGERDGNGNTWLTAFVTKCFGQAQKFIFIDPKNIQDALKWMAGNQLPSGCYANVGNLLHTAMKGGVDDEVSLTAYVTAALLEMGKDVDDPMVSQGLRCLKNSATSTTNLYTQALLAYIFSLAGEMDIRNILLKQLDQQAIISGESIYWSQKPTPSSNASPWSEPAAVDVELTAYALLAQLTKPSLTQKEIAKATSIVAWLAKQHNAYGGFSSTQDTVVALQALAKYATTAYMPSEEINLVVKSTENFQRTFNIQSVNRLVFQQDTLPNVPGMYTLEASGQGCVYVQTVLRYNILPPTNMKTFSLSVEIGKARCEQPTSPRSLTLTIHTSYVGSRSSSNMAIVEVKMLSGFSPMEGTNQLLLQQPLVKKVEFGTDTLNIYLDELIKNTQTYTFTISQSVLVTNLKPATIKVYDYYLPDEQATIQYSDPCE
Sequence of TEV-P-cleaved A2ML1t prepared in the presence of BAPN, without conjugated TEV-P (A8K2U0 19-1454): as above
Sequence of A2ML1-CC (TEV-P-cleaved A2ML1t with covalently conjugated TEV-P) (A8K2U0 whole entry, looked up, one chain of several): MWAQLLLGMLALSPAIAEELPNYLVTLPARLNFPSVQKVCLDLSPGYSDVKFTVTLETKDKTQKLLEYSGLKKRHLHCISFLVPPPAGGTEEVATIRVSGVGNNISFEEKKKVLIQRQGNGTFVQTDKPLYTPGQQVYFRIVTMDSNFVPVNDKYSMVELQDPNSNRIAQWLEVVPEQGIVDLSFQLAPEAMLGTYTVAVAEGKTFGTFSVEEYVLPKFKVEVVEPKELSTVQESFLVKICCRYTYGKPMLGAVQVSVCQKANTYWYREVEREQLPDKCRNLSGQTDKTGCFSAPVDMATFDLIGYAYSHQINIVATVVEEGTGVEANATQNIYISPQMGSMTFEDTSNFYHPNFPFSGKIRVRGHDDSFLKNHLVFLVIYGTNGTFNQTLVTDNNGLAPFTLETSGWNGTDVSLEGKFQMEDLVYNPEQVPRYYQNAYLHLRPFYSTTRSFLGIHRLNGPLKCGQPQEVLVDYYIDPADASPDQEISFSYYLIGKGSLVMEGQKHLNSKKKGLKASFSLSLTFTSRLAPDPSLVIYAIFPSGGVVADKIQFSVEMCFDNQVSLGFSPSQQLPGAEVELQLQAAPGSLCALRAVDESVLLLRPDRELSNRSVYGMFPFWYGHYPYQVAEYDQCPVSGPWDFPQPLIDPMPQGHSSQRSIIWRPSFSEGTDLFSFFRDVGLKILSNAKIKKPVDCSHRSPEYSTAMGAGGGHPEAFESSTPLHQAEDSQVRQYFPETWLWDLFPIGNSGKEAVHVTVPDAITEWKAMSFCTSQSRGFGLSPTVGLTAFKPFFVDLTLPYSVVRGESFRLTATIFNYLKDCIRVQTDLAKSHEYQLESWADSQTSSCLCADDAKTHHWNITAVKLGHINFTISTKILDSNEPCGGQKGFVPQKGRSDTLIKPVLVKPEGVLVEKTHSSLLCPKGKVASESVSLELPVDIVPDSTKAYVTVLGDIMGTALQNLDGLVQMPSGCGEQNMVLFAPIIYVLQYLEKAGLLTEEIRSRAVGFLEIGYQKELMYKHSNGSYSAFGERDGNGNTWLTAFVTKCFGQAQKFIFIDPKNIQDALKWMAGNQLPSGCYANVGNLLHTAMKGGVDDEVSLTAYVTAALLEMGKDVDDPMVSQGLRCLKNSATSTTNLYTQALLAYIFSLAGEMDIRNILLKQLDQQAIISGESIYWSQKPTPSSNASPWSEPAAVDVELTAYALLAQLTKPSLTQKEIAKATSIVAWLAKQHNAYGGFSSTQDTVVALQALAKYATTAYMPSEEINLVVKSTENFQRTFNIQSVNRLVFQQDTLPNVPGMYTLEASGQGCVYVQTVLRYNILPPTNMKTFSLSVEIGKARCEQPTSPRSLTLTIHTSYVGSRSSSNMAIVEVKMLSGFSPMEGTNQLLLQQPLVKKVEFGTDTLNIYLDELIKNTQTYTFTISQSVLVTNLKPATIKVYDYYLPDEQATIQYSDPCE

For “A2ML1-CC (TEV-P-cleaved A2ML1t with covalently conjugated TEV-P) (from UniProt A8K2U0 19-1454; A8K2U0 19-1454) (complex)”, in assay [1], the fraction of picked particles that were dimers (fraction of particles) was determined as 0.167.

Consider “TEV-P-cleaved A2ML1t prepared in the presence of BAPN, without conjugated TEV-P (from UniProt A8K2U0 19-1454; A8K2U0 19-1454)”, for which, in assay [2], the fraction of picked particles that were dimers (fraction of particles) came to 0.167 and the stoichiometry N is 2.
